Data on four molecules can be found in patent publication US20200033363A1 (GARVAN INSTITUTE OF MEDICAL RESEARCH, published 2020).

For experiment [1], the target named is T1, hen egg-white lysozyme (HEL) (hen, UniProt P00698 19-147).
T1 construct: Bought protein; It was biotinylated for phage selection; In BLI it was captured through biotinylated HyHEL-10 or HyHEL-5 Fab; also called hen egg white lysozyme antigen
As to the kind of experiment: biolayer interferometry (BLItz); HEL captured by biotinylated HyHEL-10 Fab on streptavidin sensors; Ig5 at 2000, 1000, 500 nM. In general terms: In BLI a coated tip is dipped into the sample, and binding shifts an interference pattern.

Experiment [2] concerns the target T1, hen egg-white lysozyme (HEL). As to the kind of experiment: biolayer interferometry (Example 5); printed as 'Affinity (nM)' in Table 4.
For experiment [3] the target is unchanged. As to the kind of experiment: biolayer interferometry (BLItz); HEL captured by biotinylated HyHEL-5 Fab on streptavidin sensors; Ig12 at 1000, 750, 375 nM.
Experiment [4] shares this target. Kind of experiment: printed as 'Affinity (nM)' in Table 4; method not given; differs from the 30 nM of Example 5.
Another experiment deals with T2, human VEGFB (human, UniProt P49765-2 22-188, limits assumed).
T2 sequence (looked up): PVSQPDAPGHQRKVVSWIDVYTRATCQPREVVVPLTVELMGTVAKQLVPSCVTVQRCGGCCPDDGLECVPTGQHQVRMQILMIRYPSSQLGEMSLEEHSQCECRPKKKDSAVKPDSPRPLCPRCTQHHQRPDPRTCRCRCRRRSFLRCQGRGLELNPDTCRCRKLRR
As to the kind of experiment: biolayer interferometry.

The next experiment addresses T3, mouse VEGFA164 (mouse, UniProt Q00731-2 27-190).
T3 sequence (looked up): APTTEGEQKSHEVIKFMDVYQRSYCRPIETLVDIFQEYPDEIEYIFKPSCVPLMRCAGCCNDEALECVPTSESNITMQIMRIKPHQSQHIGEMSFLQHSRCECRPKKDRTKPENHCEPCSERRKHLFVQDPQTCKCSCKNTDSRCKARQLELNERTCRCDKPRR
As to the kind of experiment: biolayer interferometry.

A further experiment addresses T4, human PlGF (human, UniProt P49763-2 19-149, limits assumed).
T4 sequence (looked up): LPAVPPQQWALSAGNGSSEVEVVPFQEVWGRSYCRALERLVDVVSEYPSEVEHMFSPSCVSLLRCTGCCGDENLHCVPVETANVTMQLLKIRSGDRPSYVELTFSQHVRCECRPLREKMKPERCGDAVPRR
As to the kind of experiment: biolayer interferometry.

Experiment [5] addresses T5, human VEGFA 121 (human, UniProt P15692-9 27-147, biotinylated (BLI assays)).
T5 construct: also called biotinylated VEGF
T5 sequence (looked up): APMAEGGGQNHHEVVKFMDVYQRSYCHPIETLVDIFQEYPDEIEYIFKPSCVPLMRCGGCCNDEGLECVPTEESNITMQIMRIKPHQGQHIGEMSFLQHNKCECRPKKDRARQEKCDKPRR
Kind of experiment: bio-layer interferometry on immobilised VEGF (biotinylated VEGFA 121 by paragraph 199).

Experiment [6] concerns the target T5, human VEGFA 121. Kind of experiment: biolayer interferometry, generally the same method as for Ig5 and Ig12; immobilized biotinylated VEGF.

Substitutions are numbered along the chain they refer to.

T1 sequence (P00698 19-147): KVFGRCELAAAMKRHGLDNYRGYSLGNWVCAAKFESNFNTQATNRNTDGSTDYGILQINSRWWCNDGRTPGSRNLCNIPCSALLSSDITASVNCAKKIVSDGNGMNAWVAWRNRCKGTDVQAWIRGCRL

B1: immunoglobulin homodimer Ig5 (other)
VL: DIQMTQSPSSLSASVGDRVTITCRASQDIAAALNWYQQKPGKAPKLLIYASSYLQSGVPSRFSGSGSGTDFTLTISSLQPEDFATYYCQQDGYYPATFGQGTKVEIKR
notes: also called VL5; Ig52
In general, koff refers to the rate constant with which the complex falls apart. A high value points to a short-lived complex. Broadly, the kon is the rate constant with which the complex forms. Read a high kon as faster complex formation. In general, Kd refers to the concentration at which binding is half-saturated. A high value points to a looser complex. Consider B1, for which, in [1], the koff came out at 0.0057 s⁻¹ and the kon was determined as 43000 M⁻¹ s⁻¹. In experiment [2], the Kd came to 130 nM.

B2: immunoglobulin homodimer Ig12 (other)
VL: B1 VL with A31S, A32D, A50S, S51D, D91Y, G92Y, Y93M, Y94I, A96S
notes: Homodimer of two identical human Vkappa1 light chain variable domains, expressed in E. coli and purified on Protein L. Structure with HEL is PDB 4N1C; also called VL12; Ig122
In [3], B2 registered a Kd of 30 nM, a koff of 0.0025 s⁻¹ and a kon of 84000 M⁻¹ s⁻¹. In addition, in experiment [4], binding was put at a Kd of 64 nM.

B3: VLD9 fused to mouse IgG2c hinge-Fc region (VLD9-Fc, long native hinge) (Fc fusion)
chain: DIQMTQSPSSLSASVGDRVTITCRASRAIAAYLNWYQQKPGKAPKLLIYAYSDLQSGVPSRFSGSGSGTDFTLTISSLQPEDFATYYCQQVWANPYTFGQGTKVEIKRA
notes: domain: hinge and Fc region; Expressed in Expi293 cells; also called VLD9-Fc native hinge; VLD9-Fc fusion protein; not shown: Mouse IgG2c hinge and Fc region
For B3, the binding result in the experiment with human VEGFB and in the experiment with human PlGF was “no binding” in each case. Besides, the Kd with mouse VEGFA164 was less than 10 nM; in the experiment with human VEGFA 121 [5], approximately 3 nM.

B4: VLD9 homodimer (other)
VL: B3 chain
notes: Homodimer of two identical human light chain variable domains selected on VEGF; Expressed generally as Ig5 and Ig12 were; also called VLD9 dimer; immunoglobulin VLD9
B4: the Kd in the experiment with human VEGFA 121 [6] is less than 10 nM.
